The record followed here is patent US20230227838A1, “ENHANCED CELL SURVIVAL AGAINST BIOTIC AND ABIOTIC STRESSES THROUGH SALICYLICK ACID-INDUCED NPR1 CONDENSATES” (priority 2020, published 2023).

Assay [1] relates to cytoplasmic condensates (SINCs). In words: Confocal imaging of localization and condensate (body) formation of GFP-fused NPR proteins and variants. Particulars: for SA-induced cytoplasmic body/condensate (SINC) formation: 5 mM SA for 2 hr. It counts as cell-based, Nicotiana benthamiana. As to the method:
Plant transformation: For plant transformations, the Agrobacterium tumefaciens strain GV3101 was transformed with plant binary vectors carrying the indicated transgenes. For stable expression in Arabidopsis, a floral dipping method was used. For transient expression in N benthamiana, the Agrobacterium carrying the indicated construct was cultured overnight at 28° C. in Luria-Bertani (LB) broth medium supplemented with appropriate antibiotics: spectinomycin (100 μg/ml), kanamycin (50 μg/ml), gentamycin (50 μg/ml), and rifampicin (25 μg/ml). The obtained culture was re-inoculated at 1:10 into fresh growth media with antibiotics and grown for another 4 hr. Cells were then spun down at 1,600 g for 10 min, and inoculum was prepared by resuspending cells to OD600 nm=1 in double distilled water (DDW) containing 200 μM acetosyringone (Sigma). Unless otherwise stated, for co-IP, co-localization, and BiFC assays in N. benthamiana, the proteins were co-expressed at 1:1 mixture of the relevant Agrobacteria inoculums. In all BiFC assays, the pair of YN/YC fusions was co-expressed together with free mCherry to mark the cytoplasm and nucleus, mCherry-NLS to mark the nucleus only, or mCherry-fused test proteins for co-localization analysis. The inoculum was pressure infiltrated into N. benthamiana leaves at the abaxial side using 1 ml syringe without the needle. Due to low overall levels of NPR1-GFP in transgenic plants, a transient expression assay in Arabidopsis seedlings was used to monitor NPR1-GFP subcellular localization after SA treatment (FIG. 2B). To limit the imaging time in this transient assay (2 hours), a higher baseline SA concentration had to be used. Seeds of WT (Col-0) Arabidopsis were germinated on solid half-strength Murashige and Skoog (1/2 MS) medium and grown for 4 days. Agrobacterium carrying the indicated constructs was grown overnight in LB medium supplemented with appropriate antibiotics. The obtained culture was re-inoculated at 1:10 into virulence induction medium [50.78 mM MES, 0.5% Glucose, 1.734 mM NaH2PO4, 5% of 20X-AB mix (373.9 mM NH4C1, 24.34 mM MgSO4, 40.23 mM KCl, 1.36 mM CaCl2 and 0.18 mM FeSO4·7H2O), 200 μM acetosyringone] supplemented with 25 μg/ml rifampicin and grown for another 24 hr at 28° C. to OD600=0.8 (inoculum). Seedlings were vacuum-infiltrated with the inoculum, and at 48 hpi (hours post inoculation), treatments were performed by submerging the transformed seedlings in water or SA solution at indicated concentrations for 2 hr. Entire cotyledons were sampled for microscopy.
Confocal laser scanning microscopy. Unless otherwise indicated, all imaging data and micrographs for single protein imaging, co-localizations, BiFC and time-lapse were obtained from the transient expression in N. benthamiana using the relevant Agrobacteria strains. All imaging was done with confocal laser scanning fluorescence microscopy using Zeiss 880 airyscan inverted confocal microscope with a 40×/1.2 water correction objective. GFP (eGFP) was excited with a 488 nm argon laser and emission was collected with a 505-530 nm band pass filter. YFP was excited with an argon laser using a 514 nm beam splitter, and emission was detected with a 520-555 nm band pass filter. mCherry was excited with a 561 nm diode laser, and emission was detected with a 575-615 nm band pass filter. When eGFP/YFP were imaged together with mCherry, a spectral GASP detector was used to collect emission from eGFP/YFP. Propidium iodide (PI) was excited with 488 nm argon laser and emission was detected with a 590-620 nm band pass filter. Time-lapse imaging was carried out on live leaf tissue samples from N. benthamiana plants transiently expressing the protein of interest. Image acquisition was done in 5 min intervals for the duration of 2 hr by scanning 30 consecutive focal planes along the Z-axis covering the entire thickness of an epidermal cell. Z-projection was done to each time frame stack before composing a final time-lapse file. […]

Assay [2] addresses sim3-GFP (Arabidopsis thaliana) (UniProt P93002). Kind of assay: sim3-GFP IP, LC-MS/MS.

sim3-GFP (Arabidopsis thaliana), sequence (P93002 other isoform, or with tags, fused parts or gaps): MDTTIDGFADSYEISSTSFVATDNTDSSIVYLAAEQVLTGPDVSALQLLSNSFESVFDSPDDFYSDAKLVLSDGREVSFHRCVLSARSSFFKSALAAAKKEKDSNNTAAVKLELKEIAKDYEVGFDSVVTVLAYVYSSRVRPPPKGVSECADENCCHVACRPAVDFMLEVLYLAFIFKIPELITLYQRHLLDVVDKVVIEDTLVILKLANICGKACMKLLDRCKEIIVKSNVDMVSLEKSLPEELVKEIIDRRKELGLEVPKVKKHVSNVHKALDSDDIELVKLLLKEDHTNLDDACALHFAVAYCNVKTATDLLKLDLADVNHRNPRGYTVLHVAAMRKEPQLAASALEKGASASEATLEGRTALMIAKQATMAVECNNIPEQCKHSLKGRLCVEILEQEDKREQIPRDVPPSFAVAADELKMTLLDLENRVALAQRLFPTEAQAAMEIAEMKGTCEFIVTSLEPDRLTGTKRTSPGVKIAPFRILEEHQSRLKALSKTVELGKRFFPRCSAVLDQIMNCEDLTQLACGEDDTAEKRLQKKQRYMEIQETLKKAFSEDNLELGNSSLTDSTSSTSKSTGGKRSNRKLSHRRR

B1: NPR4: Arabidopsis NPR1 paralog AtNPR4 (AT4G19660) (protein, UniProt Q5ICL9 1-574, looked up)
Regulatory protein NPR4: MAATAIEPSSSISFTSSHLSNPSPVVTTYHSAANLEELSSNLEQLLTNPDCDYTDAEIIIEEEANPVSVHRCVLAARSKFFLDLFKKDKDSSEKKPKYQMKDLLPYGNVGREAFLHFLSYIYTGRLKPFPIEVSTCVDSVCAHDSCKPAIDFAVELMYASFVFQIPDLVSSFQRKLRNYVEKSLVENVLPILLVAFHCDLTQLLDQCIERVARSDLDRFCIEKELPLEVLEKIKQLRVKSVNIPEVEDKSIERTGKVLKALDSDDVELVKLLLTESDITLDQANGLHYAVAYSDPKVVTQVLDLDMADVNFRNSRGYTVLHIAAMRREPTIIIPLIQKGANASDFTFDGRSAVNICRRLTRPKDYHTKTSRKEPSKYRLCIDILEREIRRNPLVSGDTPTCSHSMPEDLQMRLLYLEKRVGLAQLFFPAEANVAMDVANVEGTSECTGLLTPPPSNDTTENLGKVDLNETPYVQTKRMLTRMKALMKTVETGRRYFPSCYEVLDKYMDQYMDEEIPDMSYPEKGTVKERRQKRMRYNELKNDVKKAYSKDKVARSCLSSSSPASSLREALENPT
Turning to B1, the “SA-induced cytoplasmic body/condensate (SINC) formation” value (from here on “SA-induced cytoplasmic body/condensate”) in assay [1] is “fail to form cytoplasmic condensates”.

B2: NIMIN1 (protein, UniProt Q9FNZ5 1-142, looked up)
Protein NIM1-INTERACTING 1: MYPKQFSLYNYSLETMSKDENVESKETIRVDKRVREDEEEEEEKKIDTFFKLIKHYQEARKRRREELAENSGVVRRKSNGGERSGIVVPAFQPEDFSQCRTGLKPPLMFVSDHKEENTKVEQEEDQTEERNEDKALDLNLAL
B2 returned a Normalized Fold Change: SA vs Mock in assay [2] of 17.7 fold.

B3: NPR3: Arabidopsis NPR1 paralog AtNPR3 (AT5G45110) (protein, UniProt Q8L746 1-586, looked up)
Regulatory protein NPR3: MATLTEPSSSLSFTSSHFSYGSIGSNHFSSSSASNPEVVSLTKLSSNLEQLLSNSDCDYSDAEIIVDGVPVGVHRCILAARSKFFQDLFKKEKKISKTEKPKYQLREMLPYGAVAHEAFLYFLSYIYTGRLKPFPLEVSTCVDPVCSHDCCRPAIDFVVQLMYASSVLQVPELVSSFQRRLCNFVEKTLVENVLPILMVAFNCKLTQLLDQCIERVARSDLYRFCIEKEVPPEVAEKIKQLRLISPQDEETSPKISEKLLERIGKILKALDSDDVELVKLLLTESDITLDQANGLHYSVVYSDPKVVAEILALDMGDVNYRNSRGYTVLHFAAMRREPSIIISLIDKGANASEFTSDGRSAVNILRRLTNPKDYHTKTAKGRESSKARLCIDILEREIRKNPMVLDTPMCSISMPEDLQMRLLYLEKRVGLAQLFFPTEAKVAMDIGNVEGTSEFTGLSPPSSGLTGNLSQVDLNETPHMQTQRLLTRMVALMKTVETGRRFFPYGSEVLDKYMAEYIDDDILDDFHFEKGSTHERRLKRMRYRELKDDVQKAYSKDKESKIARSCLSASSSPSSSSIRDDLHNTT
B3: in assay [1], the “SA-induced cytoplasmic body/condensate” value is given as “fail to form cytoplasmic condensates”.

B4: LURP1, Protein of unknown function (DUF567) (protein, UniProt Q9ZQR8 1-207, looked up)
Protein LURP1: MQQPCVIVGSKYCSPNPVGLAIVRKVMKITDGNFVITSADGKLLFKVKDPLFSLHGKRILLDCSGAKVLTLRGKMMTMHDRWQVFRGGSTEEGALLYTVKRSSMIQLAPKLEVFLANNVEEKICDFKVKGAWLDDSCVVYAGDSDTIIAHMCGKQTMRGFFFGKDHFSVTVDKNVDYAFIASLIVILVEIEKAGFITKMTTQMIIGF
As for B4, in assay [2], the Normalized Fold Change: SA vs Mock was determined as 4.63 fold.

B5: NPR6: development-associated NPR1 paralog AtNPR6 (AT3G57130) (protein, UniProt Q9M1I7 1-467, looked up)
Regulatory protein NPR6: MSNTFEESLKSMSLDYLNLLINGQAFSDVTFSVEGRLVHAHRCILAARSLFFRKFFCESDPSQPGAEPANQTGSGARAAAVGGVIPVNSVGYEVFLLLLQFLYSGQVSIVPHKHEPRSNCGDRGCWHTHCTAAVDLSLDILAAARYFGVEQLALLTQKHLTSMVEKASIEDVMKVLIASRKQDMHQLWTTCSYLIAKSGLPQEILAKHLPIELVAKIEELRLKSSMPLRSLMPHHHDLTSTLDLEDQKIRRMRRALDSSDVELVKLMVMGEGLNLDESLALIYAVENCSREVVKALLELGAADVNYPAGPTGKTALHIAAEMVSPDMVAVLLDHHADPNVQTVDGITPLDILRTLTSDFLFKGAIPGLTHIEPNKLRLCLELVQSAALVISREEGNNNSNDNNTMIYPRMKDEHTSGSSLDSRLVYLNLGATNRDIGDDNSNQREGMNLHHHHHDPSTMYHHHHHHF
B5: in assay [1] (no SA treatment / mock), the “condensate formation in the absence of SA (constitutive)” value is “constitutive bodies”.

B6: NPR2: Arabidopsis NPR1 paralog AtNPR2 (AT4G26120) (protein, UniProt Q9SZI3 1-600, looked up)
Regulatory protein NPR2: MATTTTTTTARFSDSYEFSNTSGNSFFAAESSLDYPTEFLTPPEVSALKLLSNCLESVFDSPETFYSDAKLVLAGGREVSFHRCILSARIPVFKSALATVKEQKSSTTVKLQLKEIARDYEVGFDSVVAVLAYVYSGRVRSPPKGASACVDDDCCHVACRSKVDFMVEVLYLSFVFQIQELVTLYERQFLEIVDKVVVEDILVIFKLDTLCGTTYKKLLDRCIEIIVKSDIELVSLEKSLPQHIFKQIIDIREALCLEPPKLERHVKNIYKALDSDDVELVKMLLLEGHTNLDEAYALHFAIAHCAVKTAYDLLELELADVNLRNPRGYTVLHVAAMRKEPKLIISLLMKGANILDTTLDGRTALVIVKRLTKADDYKTSTEDGTPSLKGGLCIEVLEHEQKLEYLSPIEASLSLPVTPEELRMRLLYYENRVALARLLFPVETETVQGIAKLEETCEFTASSLEPDHHIGEKRTSLDLNMAPFQIHEKHLSRLRALCKTVELGKRYFKRCSLDHFMDTEDLNHLASVEEDTPEKRLQKKQRYMELQETLMKTFSEDKEECGKSSTPKPTSAVRSNRKLSHRRLKVDKRDFLKRPYGNGD
Regarding B6, the “SA-induced cytoplasmic body/condensate” value in assay [1] is listed as “fail to form cytoplasmic condensates”.

B7: DMR1, HSK, homoserine kinase (protein, UniProt Q8L7R2 35-370, looked up)
Homoserine kinase: CRASVQTLVAVEPEPVFVSVKTFAPATVANLGPGFDFLGCAVDGLGDHVTLRVDPSVRAGEVSISEITGTTTKLSTNPLRNCAGIAAIATMKMLGIRSVGLSLDLHKGLPLGSGLGSSAASAAAAAVAVNEIFGRKLGSDQLVLAGLESEAKVSGYHADNIAPAIMGGFVLIRNYEPLDLKPLRFPSDKDLFFVLVSPDFEAPTKKMRAALPTEIPMVHHVWNSSQAAALVAAVLEGDAVMLGKALSSDKIVEPTRAPLIPGMEAVKKAALEAGAFGCTISGAGPTAVAVIDSEEKGQVIGEKMVEAFWKVGHLKSVASVKKLDNVGARLVNSVSR
For the molecule B7, in assay [2], the Normalized Fold Change: SA vs Mock worked out at 2.16 fold.

B8: TAT3, tyrosine aminotransferase 3 (protein, UniProt Q9SK47 1-445, looked up)
Probable aminotransferase TAT3: MASNGVTNCNANANVWRFKGNGATSDAAAVTLRKLAFGMFKNCTMNSGKTILFPTPGEPSAHSNFRTCPEAEEAVAAAARSGMANSYAPSPGVFKARRAVAEYLNGELPTKLKAEDVYITGGCNQAIEIVIDSLAGNPSANILLPRPGYPHYDARAVYSGLEIRKYDLLPESDWEINLDGLEAAADENTVAMVIINPNNPCGNVYTYDHLNKVAEMARKLGIMIISDEVYDHVVYGDKPFIPMGKFASIAPVITLGSISKGWVNPGWRVGWIAMNDPNGIFVSTGVVQAIEDFLDLTPQPSFILQEALPDILEKTPKEFFEKKIKAMRRNVELSCERLKDIPCLFCPKKPESCSYLWLKLDTSMLNNIKNDFDFCTKLVSEESLILIPGVALGAENWVRISIGTDESVVQEIFDRLKGFYDRHAISKEAIKLSGHAINQIVVSVN
B8 returned a Normalized Fold Change: SA vs Mock in assay [2] of 18.5 fold.
